# Where two headings read alike, the source gives them in different places.
# T1: factor Va (Homo sapiens, UniProt P12259)
# T1 chain 1: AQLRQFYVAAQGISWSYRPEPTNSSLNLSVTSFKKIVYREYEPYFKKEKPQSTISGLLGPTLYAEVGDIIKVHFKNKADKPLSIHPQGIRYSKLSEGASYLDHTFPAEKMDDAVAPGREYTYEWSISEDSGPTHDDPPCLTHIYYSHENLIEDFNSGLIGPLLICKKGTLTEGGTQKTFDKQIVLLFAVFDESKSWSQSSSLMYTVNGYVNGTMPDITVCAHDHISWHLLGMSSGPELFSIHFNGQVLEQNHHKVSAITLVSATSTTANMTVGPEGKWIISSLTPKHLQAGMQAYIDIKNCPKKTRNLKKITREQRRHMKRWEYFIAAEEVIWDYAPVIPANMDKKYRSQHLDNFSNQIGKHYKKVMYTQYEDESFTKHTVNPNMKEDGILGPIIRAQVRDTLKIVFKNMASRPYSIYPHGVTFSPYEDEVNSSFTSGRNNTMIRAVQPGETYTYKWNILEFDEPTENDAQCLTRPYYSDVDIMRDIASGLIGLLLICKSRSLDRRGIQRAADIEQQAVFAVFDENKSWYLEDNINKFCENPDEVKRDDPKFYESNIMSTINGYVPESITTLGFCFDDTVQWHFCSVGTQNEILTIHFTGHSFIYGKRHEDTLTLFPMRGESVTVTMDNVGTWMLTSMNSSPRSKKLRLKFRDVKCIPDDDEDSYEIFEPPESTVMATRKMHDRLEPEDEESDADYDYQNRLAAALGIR
# T1 chain 2: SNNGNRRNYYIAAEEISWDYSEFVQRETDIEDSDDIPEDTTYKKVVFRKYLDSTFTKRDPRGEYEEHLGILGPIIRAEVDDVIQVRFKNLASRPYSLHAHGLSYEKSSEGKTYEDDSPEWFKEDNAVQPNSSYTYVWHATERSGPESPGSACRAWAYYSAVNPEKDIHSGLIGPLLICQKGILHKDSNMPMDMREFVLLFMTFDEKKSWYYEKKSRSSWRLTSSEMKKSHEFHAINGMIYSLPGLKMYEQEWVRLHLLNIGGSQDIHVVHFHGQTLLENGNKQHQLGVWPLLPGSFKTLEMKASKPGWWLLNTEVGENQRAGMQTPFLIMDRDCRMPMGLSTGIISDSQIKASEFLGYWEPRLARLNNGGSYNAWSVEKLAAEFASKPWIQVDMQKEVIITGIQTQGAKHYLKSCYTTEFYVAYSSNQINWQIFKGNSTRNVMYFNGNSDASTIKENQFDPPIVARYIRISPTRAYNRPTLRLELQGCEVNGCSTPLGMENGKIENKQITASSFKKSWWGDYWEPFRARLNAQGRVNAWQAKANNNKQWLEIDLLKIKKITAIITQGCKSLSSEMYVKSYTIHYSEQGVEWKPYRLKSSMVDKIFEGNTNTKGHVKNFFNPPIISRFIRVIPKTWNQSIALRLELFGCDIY
# Columns and labels:
# [1] = target: OG488-EGR-labeled fXa-R165A; experiment: fluorescence polarisation
# OG488-EGR-labeled E2-fXa = experiment: fluorescence polarisation
# [2] = target: OG488-EGR-labeled fXa-R165A; experiment: fluorescence polarisation; remark: listed apart in the source
# [3] = target: OG488-EGR-labeled fXa-des-Gla; experiment: fluorescence polarisation
# [4] = target: OG488-EGR-labeled wild-type factor Xa; experiment: fluorescence polarisation
# factor Va = target: T1, factor Va; experiment: prothrombinase assay
Molecule,Kd [1] [nM],Kd (OG488-EGR-labeled E2-fXa) [nM],Kd [2] [nM],Kd [3] [nM],Kd [4] [nM],Kd (factor Va) [nM]
human plasma factor Va (from UniProt P12259 29-737; P12259 1574-2224) (natural protein),10.5,62,10.3,58,1.5,–
"factor Xa (protein, PCPS vesicles) IVGGQECKDGECPWQALLINEENEGFCGGTILSEFYILTAAHCLYQAKRFKVRVGDRNTEQEEGGEAVHEVEVVIKHNRFTKETYDFDIAVLRLKTPITFRMNVAPACLPERDWAESTLMTQKTGIVSGFGRTHEKGRQSTRLKMLEVPYVDRNSCKLSSSFIITQNMFCAGYDTKQEDACQGDSGGPHVTRFKDTYFVTGIVSWGEGCARKGKYGIYTKVTAFLKWIDRSMKTRGLPKAKSHAPEVITSSPLK",–,–,–,–,–,0.5

# From article PMC2693874 (2009)
